For test [1], the target named is H3K9me3 peptide. In words: fluorescence polarization, FITC-peptide 0.5 nM. A general note: Fluorescence polarisation rises when a labelled molecule tumbles more slowly, as on binding a larger partner.
For test [2], the target named is H3K27me3-marked histone H3 in chromatin of mouse embryonic stem cells (mouse). In words: ChIP-seq of the EGFP control in mESCs, correlation with antibody ChIP-seq of the mark, counts at 1-kb intervals.
Test [3] deals with H3K4me3 (mouse). The description is as above.
In test [4] the target is H3K9me3-marked histone H3 in chromatin of mouse embryonic stem cells (mouse). The description is as above.
Test [5] deals with H3K27me3-marked histone H3 in chromatin of mouse embryonic stem cells (mouse). In words: ChIP-seq of the EGFP control in mESCs, correlation with antibody ChIP-seq of the mark, 1-kb bins on chromosome 19.
In test [6] the target is H3K4me3 (mouse). The test is described as above.
Test [7] has as its target H3K9me3-marked histone H3 in chromatin of mouse embryonic stem cells (mouse). Described as above.

Sequence of Cbx1.wt chromodomain (tags removed), P83916 17-79 (P83916 17-79 limits assumed): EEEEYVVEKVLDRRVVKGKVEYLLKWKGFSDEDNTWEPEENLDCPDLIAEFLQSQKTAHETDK
Sequence of Cbx3.wt chromodomain (tags removed), Q13185 23-81 (Q13185 23-81 limits assumed): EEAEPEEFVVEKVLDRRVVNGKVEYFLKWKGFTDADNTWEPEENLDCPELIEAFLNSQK
Sequence of Cbx5.wt chromodomain (tags removed), P45973 17-78 (P45973 17-78 limits assumed): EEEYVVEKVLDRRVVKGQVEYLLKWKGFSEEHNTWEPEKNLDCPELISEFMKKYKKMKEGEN

Consider “Cbx5.wt chromodomain (tags removed), P45973 17-78”, for which the Kd – broadly, the equilibrium constant for the complex coming apart – in test [1] is 5000 nM.

As to EGFP, the Pearson correlation in test [2] was 0.2; in test [3], 0.14; in test [4] it was 0.32; in test [5], -0.1; in test [6], 0.2; in test [7], -0.3.

“Cbx1.wt chromodomain (tags removed), P83916 17-79” displayed a Kd in test [1] of 500 nM.

The substance “Cbx3.wt chromodomain (tags removed), Q13185 23-81” registered a Kd in test [1] of 2000 nM.

Source of the values: patent US20260266833A1.
